{"source": "patent US20050096266A1", "about": "“Preparation and method for weight reduction” (priority 2002, published 2005)", "origin": "cited, not measured here", "molecules": {"B1": {"name": "soybean trypsin inhibitor: Commercial proteinous trypsin inhibitor (Type Il-S, Sigma Chemical Co.) that binds trypsin, forming inactive complexes (protein, UniProt P01070 25-205, looked up)", "Trypsin inhibitor A": "DFVLDNEGNPLENGGTYYILSDITAFGGIRAAPTGNERCPLTVVQSRNELDKGIGTIISSPYRIRFIAEGHPLSLKFDSFAVIMLCVGIPTEWSVVEDLPEGPAVKIGENKDAMDGWFRLERVSDDEFNNYKLVFCPQQAEDDKCGDIGISIDHDDGTRRLVVSKNKPLVVQFQKLDKESL"}}, "tested_on": "trypsin", "settings": "trypsin secreted into the duodenum by the pancreas; per one weight unit of inhibitor", "data": [{"molecule": "B1", "values": [{"measurement": "weight units of trypsin inactivated by one weight unit of the inhibitor", "value": 2.5, "unit": "weight units"}]}]}
